Source: US20240010695A1

Columns and labels:
Experiment in all cases: polyreactivity ELISA, antigen coated, 10 ug/mL binder
[1] = target: human serum albumin (human) (UniProt P02768)
insulin = target: insulin
[2] = target: keyhole limpet hemocyanin

Work on Bococizumab (antibody) yielded an absorbance at 450 nm normalized against the no-antigen control [1] of 16.6, an absorbance at 450 nm normalized against the no-antigen control (insulin) of 21.4 and an absorbance at 450 nm normalized against the no-antigen control [2] of 38.8.
